The supplement of paper PMC5998384

Assays:
HeLa Kyoto [1] = experiment: solubility change mitosis vs G1/S (difference of NP-40 vs SDS log2 ratios) (log2 ratio difference); higher = more soluble in mitosis
HeLa Kyoto [2] = experiment: thermal stability score vs G1/S (z-score of summed log2 fold changes over temperatures); higher = more thermally stable than in G1/S
HeLa Kyoto [3] = experiment: melting temperature (median over replicates), in situ; higher = more thermally stable
HeLa Kyoto [4] = experiment: solubility in G1/S (NP-40 vs SDS abundance) (log2 ratio); higher = more soluble; details: cell cycle stage: G1/S
[5] = cell cycle stage: early G1 (4.5 h after nocodazole release)
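Throughout, for melting temperature (median over replicates), in situ: HeLa Kyoto cells synchronized by double thymidine or nocodazole block, proteins quantified by TMT10plex mass spectrometry, three independent biological replicates.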
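Throughout, for solubility change mitosis vs G1/S (difference of NP-40 vs SDS log2 ratios): synchronized HeLa Kyoto cells (double thymidine block for G1/S, nocodazole release for mitosis), protein amounts in NP-40 versus SDS lysates quantified by mass spectrometry, three biological replicates.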
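Throughout, for solubility in G1/S (NP-40 vs SDS abundance): HeLa Kyoto cells arrested at G1/S by double thymidine block, proteins quantified by TMT10plex mass spectrometry in mild NP-40 versus SDS extracts, three biological replicates.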
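Throughout, for thermal stability score vs G1/S (z-score of summed log2 fold changes over temperatures): synchronized HeLa Kyoto cells, proteins quantified by TMT10plex mass spectrometry, three biological replicates, mitosis taken 0.5 h after nocodazole release, G1/S directly after double thymidine block.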

Sequence | solubility change mitosis (log2) (HeLa Kyoto [1]) | thermal stability score (HeLa Kyoto [2]; [5]) | thermal stability score (HeLa Kyoto [2]; cell cycle stage: mitosis) | melting temperature (HeLa Kyoto [3]; cell cycle stage: G1/S) | melting temperature (HeLa Kyoto [3]; cell cycle stage: mitosis) | solubility in G1/S (log2) (HeLa Kyoto [4])
MAAVVAATRWWQLLLVLSAAGMGASGAPQPPNILLLLMDDMGWGDLGVYGEPSRETPNLDRMAAEGLLFPNFYSANPLCSPSRAALLTGRLPIRNGFYTTNAHARNAYTPQEIVGGIPDSEQLLPELLKKAGYVSKIVGKWHLGHRPQFHPLKHGFDEWFGSPNCHFGPYDNKARPNIPVYRDWEMVGRYYEEFPINLKTGEANLTQIYLQEALDFIKRQARHHPFFLYWAVDATHAPVYASKPFLGTSQRGRYGDAVREIDDSIGKILELLQDLHVADNTFVFFTSDNGAALISAPEQGGSNGPFLCGKQTTFEGGMREPALAWWPGHVTAGQVSHQLGSIMDLFTTSLALAGLTPPSDRAIDGLNLLPTLLQGRLMDRPIFYYRGDTLMAATLGQHKAHFWTWTNSWENFRQGIDFCPGQNVSGVTTHNLEDHTKLPLIFHLGRDPGERFPLSFASAEYQEALSRITSVVQQHQEALVPAQPQLNVCNWAVMNWAPPGCEKLGKCLTPPESIPKKCLWSH [GALNS] | -0.0581 | -4.28 | -1.14 | 55.5 °C | 57.8 °C | 0.789
MAAVVVAAAGGAGPAVLQVAGLYRGLCAVRSRALGLGLVSPAQLRVFPVRPGSGRPEGGADSSGVGAEAELQANPFYDRYRDKIQLLRRSDPAAFESRLEKRSEFRKQPVGHSRQGDFIKCVEQKTDALGKQSVNRGFTKDKTLSSIFNIEMVKEKTAEEIKQIWQQYFAAKDTVYAVIPAEKFDLIWNRAQSCPTFLCALPRREGYEFFVGQWTGTELHFTALINIQTRGEAAASQLILYHYPELKEEKGIVLMTAEMDSTFLNVAEAQCIANQVQLFYATDRKETYGLVETFNLRPNEFKYMSVIAELEQSGLGAELKCAQNQNKT [ATPAF1] | -0.00439 | 1.88 | 1.83 | 51.4 °C | 51.5 °C | 0.199
MAAWGRRRLGPGSSGGSARERVSLSATDCYIVHEIYNGENAQDQFEYELEQALEAQYKYIVIEPTRIGDETARWITVGNCLHKTAVLAGTACLFTPLALPLDYSHYISLPAGVLSLACCTLYGISWQFDPCCKYQVEYDAYKLSRLPLHTLTSSTPVVLVRKDDLHRKRLHNTIALAALVYCVKKIYELYAV [TMEM11] | -0.0939 | -0.391 | -1.34 | 52.2 °C | 51.4 °C | -0.0105
MAAYLQWRRFVFFDKELVKEPLSNDGAAPGATPASGSAASKFLCLPPGITVCDSGRGSLVFGDMEGQIWFLPRSLQLTGFQAYKLRVTHLYQLKQHNILASVGEDEEGINPLVKIWNLEKRDGGNPLCTRIFPAIPGTEPTVVSCLTVHENLNFMAIGFTDGSVTLNKGDITRDRHSKTQILHKGNYPVTGLAFRQAGKTTHLFVVTTENVQSYIVSGKDYPRVELDTHGCGLRCSALSDPSQDLQFIVAGDECVYLYQPDERGPCFAFEGHKLIAHWFRGYLIIVSRDRKVSPKSEFTSRDSQSSDKQILNIYDLCNKFIAYSTVFEDVVDVLAEWGSLYVLTRDGRVHALQEKDTQTKLEMLFKKNLFEMAINLAKSQHLDSDGLAQIFMQYGDHLYSKGNHDGAVQQYIRTIGKLEPSYVIRKFLDAQRIHNLTAYLQTLHRQSLANADHTTLLLNCYTKLKDSSKLEEFIKKKSESEVHFDVETAIKVLRQAGYYSHALYLAENHAHHEWYLKIQLEDIKNYQEALRYIGKLPFEQAESNMKRYGKILMHHIPEQTTQLLKGLCTDYRPSLEGRSDREAPGCRANSEEFIPIFANNPRELKAFLEHMSEVQPDSPQGIYDTLLELRLQNWAHEKDPQVKEKLHAEAISLLKSGRFCDVFDKALVLCQMHDFQDGVLYLYEQGKLFQQIMHYHMQHEQYRQVISVCERHGEQDPSLWEQALSYFARKEEDCKEYVAAVLKHIENKNLMPPLLVVQTLAHNSTATLSVIRDYLVQKLQKQSQQIAQDELRVRRYREETTRIRQEIQELKASPKIFQKTKCSICNSALELPSVHFLCGHSFHQHCFESYSESDADCPTCLPENRKVMDMIRAQEQKRDLHDQFQHQLRCSNDSFSVIADYFGRGVFNKLTLLTDPPTARLTSSLEAGLQRDLLMHSRRGT [VPS11] | -0.106 | -0.498 | -0.231 | 51.3 °C | 49.9 °C | -0.142
MACAEFSFHVPSLEELAGVMQKGLKDNFADVQVSVVDCPDLTKEPFTFPVKGICGKTRIAEVGGVPYLLPLVNQKKVYDLNKIAKEIKLPGAFILGAGAGPFQTLGFNSEFMPVIQTESEHKPPVNGSYFAHVNPADGGCLLEKYSEKCHDFQCALLANLFASEGQPGKVIEVKAKRRTGPLNFVTCMRETLEKHYGNKPIGMGGTFIIQKGKVKSHIMPAEFSSCPLNSDEEVNKWLHFYEMKAPLVCLPVFVSRDPGFDLRLEHTHFFSRHGEGGHYHYDTTPDIVEYLGYFLPAEFLYRIDQPKETHSIGRD [C11ORF54] | -0.126 | -2.98 | -4.1 | 55.7 °C | 56.3 °C | 0.72
MADAWEEIRRLAADFQRAQFAEATQRLSERNCIEIVNKLIAQKQLEVVHTLDGKEYITPAQISKEMRDELHVRGGRVNIVDLQQVINVDLIHIENRIGDIIKSEKHVQLVLGQLIDENYLDRLAEEVNDKLQESGQVTISELCKTYDLPGNFLTQALTQRLGRIISGHIDLDNRGVIFTEAFVARHKARIRGLFSAITRPTAVNSLISKYGFQEQLLYSVLEELVNSGRLRGTVVGGRQDKAVFVPDIYSRTQSTWVDSFFRQNGYLEFDALSRLGIPDAVSYIKKRYKTTQLLFLKAACVGQGLVDQVEASVEEAISSGTWVDIAPLLPTSLSVEDAAILLQQVMRAFSKQASTVVFSDTVVVSEKFINDCTELFRELMHQKAEKEMKNNPVHLITEEDLKQISTLESVSTSKKDKKDERRRKATEGSGSMRGGGGGNAREYKIKKVKKKGRKDDDSDDESQSSHTGKKKPEISFMFQDEIEDFLRKHIQDAPEEFISELAEYLIKPLNKTYLEVVRSVFMSSTTSASGTGRKRTIKDLQEEVSNLYNNIRLFEKGMKFFADDTQAALTKHLLKSVCTDITNLIFNFLASDLMMAVDDPAAITSEIRKKILSKLSEETKVALTKLHNSLNEKSIEDFISCLDSAAEACDIMVKRGDKKRERQILFQHRQALAEQLKVTEDPALILHLTSVLLFQFSTHSMLHAPGRCVPQIIAFLNSKIPEDQHALLVKYQGLVVKQLVSQSKKTGQGDYPLNNELDKEQEDVASTTRKELQELSSSIKDLVLKSRKSSVTEE [UFL1] | -0.0952 | 1.14 | 2.59 | 50 °C | 49.8 °C | -0.013
